Laboratory results as given in patent publication US20260167699A1 (Chugai, published 2026).
Substitutions are numbered along the chain they refer to.

T1: FcγRIIb (human, UniProt P31994 43-217)
T1 construct: extracellular domain; also called 2b
T1 sequence: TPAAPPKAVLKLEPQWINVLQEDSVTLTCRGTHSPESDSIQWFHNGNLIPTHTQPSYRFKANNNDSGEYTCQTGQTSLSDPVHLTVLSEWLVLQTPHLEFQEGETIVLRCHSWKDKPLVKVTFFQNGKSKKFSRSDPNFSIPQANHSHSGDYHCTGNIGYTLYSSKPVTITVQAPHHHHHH

T2: FcγRIIa(H) (human, UniProt P12318 34-217)
T2 construct: extracellular domain; also called 2aH
T2 sequence: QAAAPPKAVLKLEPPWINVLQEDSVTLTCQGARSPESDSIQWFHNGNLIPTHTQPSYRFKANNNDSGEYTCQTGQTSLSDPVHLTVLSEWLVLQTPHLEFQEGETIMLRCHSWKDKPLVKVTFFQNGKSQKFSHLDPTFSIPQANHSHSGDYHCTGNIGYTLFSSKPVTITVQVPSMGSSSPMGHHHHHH

T3: FcγRIIa(R) (human, UniProt P12318 34-217)
T3 construct: extracellular domain; also called 2aR
T3 sequence: T2 sequence with H134R

B1: GpH7-A5/GpH7-B3 variant S324_14T/GpL16-k0 (antibody, human IgG1, kappa)
heavy 1: not shown
heavy 2: not shown
light: DIVMTQSPLSLPVTPGEPASISCQASESLVHSNRNTYLHWYLQKPGQSPQLLIYKVSNRFSGVPDRFSGSGSGTDFTLKISRVEAEDVGVYYCSQNTHVPPTFGQGTKVEIERTVAAPSVFIFPPSDEQLKSGTASVVCLLNNFYPREAKVQWKVDNALQSGNSQESVTEQDSKDSTYSLSSTLTLSKADYEKHKVYACEVTHQGLSSPVTKSFNRGEC
notes: He Ab: heterodimerized IgG1, one H chain mutated
B2: GpH7-A5/GpH7-B3 variant A330_04F/GpL16-k0 (antibody, human IgG1, kappa)
heavy 1: not shown
heavy 2: not shown
light: B1 light
notes: as for B1
B3: GpH7-A5/GpH7-B3 variant A330_09D/GpL16-k0 (antibody, human IgG1, kappa)
heavy 1: not shown
heavy 2: not shown
light: B1 light
notes: as for B1
B4: GpH7-A5/GpH7-B3 variant A327_10E/GpL16-k0 (antibody, human IgG1, kappa)
heavy 1: not shown
heavy 2: not shown
light: B1 light
notes: as for B1
B5: GpH7-A5/GpH7-B3 variant A330_07I/GpL16-k0 (antibody, human IgG1, kappa)
heavy 1: not shown
heavy 2: not shown
light: B1 light
notes: as for B1
B6: GpH7-A5/GpH7-B3 variant A327_05P/GpL16-k0 (antibody, human IgG1, kappa)
heavy 1: not shown
heavy 2: not shown
light: B1 light
notes: as for B1
B7: GpH7-A5/GpH7-B3 variant A327_09D/GpL16-k0 (antibody, human IgG1, kappa)
heavy 1: not shown
heavy 2: not shown
light: B1 light
notes: as for B1
B8: GpH7-A5/GpH7-B3 variant A330_03V/GpL16-k0 (antibody, human IgG1, kappa)
heavy 1: not shown
heavy 2: not shown
light: B1 light
notes: as for B1
B9: GpH7-A5/GpH7-B3 variant A327_06M/GpL16-k0 (antibody, human IgG1, kappa)
heavy 1: not shown
heavy 2: not shown
light: B1 light
notes: as for B1
B10: GpH7-A5/GpH7-B3 variant A327_18N/GpL16-k0 (antibody, human IgG1, kappa)
heavy 1: not shown
heavy 2: not shown
light: B1 light
notes: as for B1
B11: GpH7-A5/GpH7-B3 variant A327_13S/GpL16-k0 (antibody, human IgG1, kappa)
heavy 1: not shown
heavy 2: not shown
light: B1 light
notes: as for B1
B12: GpH7-A5/GpH7-B3 variant A330_01G/GpL16-k0 (antibody, human IgG1, kappa)
heavy 1: not shown
heavy 2: not shown
light: B1 light
notes: as for B1
B13: GpH7-A5/GpH7-B3 variant A327_19Q/GpL16-k0 (antibody, human IgG1, kappa)
heavy 1: not shown
heavy 2: not shown
light: B1 light
notes: as for B1
B14: GpH7-A5/GpH7-B3 variant A330_08L/GpL16-k0 (antibody, human IgG1, kappa)
heavy 1: not shown
heavy 2: not shown
light: B1 light
notes: as for B1
B15: GpH7-A5/GpH7-B3 variant A327_20W/GpL16-k0 (antibody, human IgG1, kappa)
heavy 1: not shown
heavy 2: not shown
light: B1 light
notes: as for B1

Each binder was assayed against T1, FcγRIIb (assay: SPR, relative to GpH7-A5/GpH7-B3/GpL16-k0 =100).

| He/Con 2b [%] | Binder |
| --- | --- |
| 115 | B1 |
| 105 | B2 |
| 62.8 | B3 |
| 175 | B4 |
| 75.8 | B5 |
| 86.3 | B6 |
| 214 | B7 |
| 59.2 | B8 |
| 74.1 | B9 |
| 141 | B10 |
| 99 | B11 |
| 117 | B12 |
| 67.5 | B13 |
| 79.6 | B14 |
| 98.2 | B15 |

The binders below were run against T4, FcγRIa (human, UniProt P12314 16-292) (assay: SPR, relative to GpH7-A5/GpH7-B3/GpL16-k0 =100).
T4 construct: extracellular domain; also called 1a
T4 sequence (P12314 other isoform, or with tags, fused parts or gaps): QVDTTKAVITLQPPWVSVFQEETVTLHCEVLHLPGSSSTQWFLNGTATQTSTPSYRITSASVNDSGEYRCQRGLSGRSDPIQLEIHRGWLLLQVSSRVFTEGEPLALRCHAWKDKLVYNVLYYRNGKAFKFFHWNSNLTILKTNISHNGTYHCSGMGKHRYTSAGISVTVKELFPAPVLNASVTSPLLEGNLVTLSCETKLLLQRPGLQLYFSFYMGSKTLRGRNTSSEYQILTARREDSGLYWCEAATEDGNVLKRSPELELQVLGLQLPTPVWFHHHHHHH

| He/Con 1a [%] | Binder |
| --- | --- |
| 114 | B1 |
| 110 | B2 |
| 112 | B3 |
| 106 | B4 |
| 109 | B5 |
| 102 | B6 |
| 105 | B7 |
| 109 | B8 |
| 106 | B9 |
| 100 | B10 |
| 105 | B11 |
| 109 | B12 |
| 98.5 | B13 |
| 110 | B14 |
| 100 | B15 |

Each binder was assayed against T2, FcγRIIa(H) (assay: SPR, relative to GpH7-A5/GpH7-B3/GpL16-k0 =100).

| He/Con 2aH [%] | Binder |
| --- | --- |
| 107 | B1 |
| 104 | B2 |
| 67.8 | B3 |
| 108 | B4 |
| 94.4 | B5 |
| 67.9 | B6 |
| 124 | B7 |
| 86.1 | B8 |
| 89.3 | B9 |
| 79 | B10 |
| 84.4 | B11 |
| 107 | B12 |
| 79.6 | B13 |
| 94.7 | B14 |
| 76.6 | B15 |

What follows are binders tested against T3, FcγRIIa(R) (assay: SPR, relative to GpH7-A5/GpH7-B3/GpL16-k0 =100).

| He/Con 2aR [%] | Binder |
| --- | --- |
| 93.9 | B1 |
| 112 | B2 |
| 79.5 | B3 |
| 142 | B4 |
| 96 | B5 |
| 80.6 | B6 |
| 159 | B7 |
| 84 | B8 |
| 80 | B9 |
| 114 | B10 |
| 98.6 | B11 |
| 122 | B12 |
| 77.7 | B13 |
| 99.7 | B14 |
| 95.9 | B15 |
